Assay results as given in patent publication US11034762 (CENTIVAX, dated 2021).

T1: MERS Receptor Binding Domain (RBD) protein (MERS virus, UniProt K9N5Q8 367-606)
T1 construct: also called Middle East Respiratory Syndrome (MERS) virus
T1 sequence: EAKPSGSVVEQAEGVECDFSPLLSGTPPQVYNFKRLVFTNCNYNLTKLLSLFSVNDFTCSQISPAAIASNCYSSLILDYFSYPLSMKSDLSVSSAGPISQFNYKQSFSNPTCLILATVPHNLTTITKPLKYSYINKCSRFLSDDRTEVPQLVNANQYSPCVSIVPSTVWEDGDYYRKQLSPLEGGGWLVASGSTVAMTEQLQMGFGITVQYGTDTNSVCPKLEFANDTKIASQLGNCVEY

B1: COVID19_P21_F11 (scFv, V domains shown)
VH: QVQLVQSGAEVKKPGSSVKVSCKASGGTFSSYAISWVRQAPGQGLEWMGIIYPGDSTARYSQKFQGRVTITADESTSTAYMELSSLRSEDTAVYYCAGGSGISTLYDVWGQGTLVTVSS
VL: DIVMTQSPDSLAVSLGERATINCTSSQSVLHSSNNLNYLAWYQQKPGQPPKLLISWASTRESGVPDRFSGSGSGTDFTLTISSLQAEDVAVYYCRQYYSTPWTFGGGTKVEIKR
B2: COVID19_P09_E11 (scFv, V domains shown)
VH: QVQLVQSGAEVKKPGSSVKVSCKASGGTFSNHAISWVRQAYGQGLEWMGIIYPGDGTTRYSQKFQGRVTITADESTSTAYMELSSLRSEDTAVYYCAGGSGISTPMDVWGQGTLVTVSS
VL: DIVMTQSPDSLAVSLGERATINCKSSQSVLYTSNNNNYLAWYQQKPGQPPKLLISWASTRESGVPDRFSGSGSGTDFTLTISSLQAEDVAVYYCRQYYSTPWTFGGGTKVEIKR
B3: COVID19_P09_B07 (scFv, V domains shown)
VH: QVQLVQSGAEVKKPGSSVKVSCKASGGTFSSYAISWVRQAPGQGLEWMGGIIPTLGTANYAQKFQGRVTITADESTSTAYMELSSLRSEDTAVYYCAGSWGISTPMDVWGQGTLVTVSS
VL: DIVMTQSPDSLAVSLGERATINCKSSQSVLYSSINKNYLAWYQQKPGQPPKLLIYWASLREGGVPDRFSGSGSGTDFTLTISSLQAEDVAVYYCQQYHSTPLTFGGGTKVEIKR
B4: COVID19_P09_C09 (scFv, V domains shown)
VH: QVQLVQSGAEVKKPGSSVKVSCKASGGTFSSYAISWVRQAPGQGLEWMGIIDPSGGSTSYAQQFQGRVTITADESTSTAYMELSSLRSEDTAVYYCAGGSGISTPMDVWGQGTLVTVSS
VL: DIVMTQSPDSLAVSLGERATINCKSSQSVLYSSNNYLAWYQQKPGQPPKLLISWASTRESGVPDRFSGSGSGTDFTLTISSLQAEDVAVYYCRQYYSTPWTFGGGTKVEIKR
B5: COVID19_P22_E12 (scFv, V domains shown)
VH: QVQLVQSGAEVKKPGSSVKVSCKASGGTFSSYAINWVRQAPGQGLEWMGGIIPVLHTVDYAQRLQGRVTITADESTSTAYMELSSLRSEDTAVYYCAGEWGISTPMDVWGQGTLVTVSS
VL: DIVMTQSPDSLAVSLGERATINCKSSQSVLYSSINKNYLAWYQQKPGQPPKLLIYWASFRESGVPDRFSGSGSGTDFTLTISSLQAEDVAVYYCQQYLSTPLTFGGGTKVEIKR
B6: COVID19_P09_H08 (scFv, V domains shown)
VH: QVQLVQSGAEVKKPGSSVKVSCKASGGTFSSYAISWVRQAPGQGLEWMGGIIPIFGTTNYAQKFQGRVTITADESTSTAYMELSSLRSEDTAVYYCAGEWGISTPMDVWGQGTLVTVSS
VL: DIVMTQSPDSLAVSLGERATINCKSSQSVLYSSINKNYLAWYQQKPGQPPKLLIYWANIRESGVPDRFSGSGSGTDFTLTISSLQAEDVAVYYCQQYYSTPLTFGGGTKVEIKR
B7: COVID19_P09_H09 (scFv, V domains shown)
VH: QVQLVQSGAEVKKPGSSVKVSCKASGGTFITYWIYWVRQAPGQGLEWMGIIYPGDGEARYSQKFYGRVTITADESTSTAYMELSSLRSEDTAVYYCAGSGGISTPMDVWGQGTLVTVSS
VL: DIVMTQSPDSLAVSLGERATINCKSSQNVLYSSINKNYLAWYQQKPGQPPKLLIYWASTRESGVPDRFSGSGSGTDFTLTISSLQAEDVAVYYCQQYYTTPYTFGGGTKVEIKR
B8: COVID19_P10_C05 (scFv, V domains shown)
VH: QVQLVQSGAEVKKPGSSVKVSCKASGGTFITYWIGWVRQAPGQGLEWMGIIYPGDGEARYSQKFQGRVTITADESTSTAYMELSSLRSEDTAVYYCAGSGGISTPMDVWGQGTLVTVSS
VL: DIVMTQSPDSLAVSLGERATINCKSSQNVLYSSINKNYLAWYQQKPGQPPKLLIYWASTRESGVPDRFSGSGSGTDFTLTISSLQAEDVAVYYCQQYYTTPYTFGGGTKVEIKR
B9: COVID19_P22_E06 (scFv, V domains shown)
VH: QVQLVQSGAEVKKPGSSVKVSCKASGGGFITYWIGWVRQAPGQGLEWMGIIYPGDSETRYSQKFQGRVTITADESTSTAYMELSSLRSEDTAVYYCAGGSGISSDMDVWGQGTLVTVSS
VL: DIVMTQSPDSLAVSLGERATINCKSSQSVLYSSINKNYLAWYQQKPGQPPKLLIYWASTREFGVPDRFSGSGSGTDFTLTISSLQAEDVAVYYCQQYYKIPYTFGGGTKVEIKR
B10: COVID19_P21_A08 (scFv, V domains shown)
VH: QVQLVQSGAEVKKPGSSVKVSCKASGGTFITYWIGWVRQAPGQGLEWMGWINPNSGGTNYAQKFQGRVTITADESTSTAYMELSSLRSEDTAVYYCAGGSGISTPMDVWGQGTLVTVSS
VL: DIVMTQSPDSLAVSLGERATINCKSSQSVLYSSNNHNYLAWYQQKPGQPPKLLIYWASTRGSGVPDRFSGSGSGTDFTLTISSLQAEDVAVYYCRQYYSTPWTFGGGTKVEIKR
B11: COVID19_P10_D08 (scFv, V domains shown)
VH: QVQLVQSGAEVKKPGSSVKVSCKASGGTFNSHAISWVRQAPGQGLEWMGWINPNSGATNYAQKFQGRVTITADESTSTAYMELSSLRSEDTAVYYCAGGSGISTPVGVWGQGTLVTVSS
VL: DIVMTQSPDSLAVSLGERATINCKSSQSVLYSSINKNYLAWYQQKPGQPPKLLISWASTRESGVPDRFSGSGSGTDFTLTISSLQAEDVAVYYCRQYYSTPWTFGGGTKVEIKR
B12: COVID19_P10_G03 (scFv, V domains shown)
VH: QVQLVQSGAEVKKPGSSVKVSCKASGGTFSNSSINWVRQAPGQGLEWMGRINPNSGGTNYAQKFQGRVTITADESTSTAYMELSSLRSEDTAVYYCAGGSGISTPMDVWGQGTLVTVSS
VL: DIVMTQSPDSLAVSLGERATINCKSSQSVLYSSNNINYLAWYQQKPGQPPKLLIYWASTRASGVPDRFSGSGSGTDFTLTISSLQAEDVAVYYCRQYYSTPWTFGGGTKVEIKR
B13: COVID19_P22_F07 (scFv, V domains shown)
VH: QVQLVQSGAEVKKPGSSVKVSCKASGGTFSSYAISWVRQAPGQGLEWMGGIIPIFGSTASYAQKFQGRVTITADESTSTAYMELSSLRSEDTAVYYCAGEWGISTPMDVWGQGTLVTVSS
VL: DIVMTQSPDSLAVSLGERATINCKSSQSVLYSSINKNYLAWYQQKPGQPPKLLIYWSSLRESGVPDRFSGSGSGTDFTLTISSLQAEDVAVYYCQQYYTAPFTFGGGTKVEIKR

Columns and labels:
[1] = target: SARS-CoV-2 Receptor Binding Domain (RBD) protein (SARS-CoV-2, UniProt P0DTC2 319-541)
[2] = target: T2, SARS-CoV-1 Receptor Binding Domain (RBD) protein (SARS-CoV-1, UniProt P59594 306-527); assay: SPR; clone listed as COV2 only at the 21st table, row 27, column 3
T2 construct: also called SARS1

[3] = target: T1, MERS Receptor Binding Domain (RBD) …; assay: as above
[4] = target: T2, SARS-CoV-1 Receptor Binding Domain …; assay: SPR; clone listed as COV2 only at the 21st table, row 19, column 3
[5] = target: T1, MERS Receptor Binding Domain (RBD) …; assay: as above
[6] = target: T2, SARS-CoV-1 Receptor Binding Domain …; assay: SPR; clone listed as COV2 only at the 21st table, row 25, column 3
[7] = target: T1, MERS Receptor Binding Domain (RBD) …; assay: as above
[8] = target: T2, SARS-CoV-1 Receptor Binding Domain …; assay: SPR; clone listed as COV2 only at the 21st table, row 26, column 3
[9] = target: T1, MERS Receptor Binding Domain (RBD) …; assay: as above
[10] = target: T2, SARS-CoV-1 Receptor Binding Domain …; assay: SPR; clone listed as COV2 only at the 21st table, row 22, column 3
[11] = target: T1, MERS Receptor Binding Domain (RBD) …; assay: as above
[12] = target: T2, SARS-CoV-1 Receptor Binding Domain …; assay: SPR; clone listed as COV2 only at the 21st table, row 24, column 3
[13] = target: T1, MERS Receptor Binding Domain (RBD) …; assay: as above
[14] = target: T2, SARS-CoV-1 Receptor Binding Domain …; assay: SPR; clone listed as COV2 only at the 21st table, row 16, column 3
[15] = target: T1, MERS Receptor Binding Domain (RBD) …; assay: as above
[16] = target: T2, SARS-CoV-1 Receptor Binding Domain …; assay: SPR; clone listed as COV2 only at the 21st table, row 14, column 3
[17] = target: T1, MERS Receptor Binding Domain (RBD) …; assay: as above
[18] = target: T2, SARS-CoV-1 Receptor Binding Domain …; assay: SPR; clone listed as COV2 only at the 21st table, row 7, column 3
[19] = target: T1, MERS Receptor Binding Domain (RBD) …; assay: as above
[20] = target: T2, SARS-CoV-1 Receptor Binding Domain …; assay: SPR; clone listed as COV2 only at the 21st table, row 15, column 3
[21] = target: T1, MERS Receptor Binding Domain (RBD) …; assay: as above
[22] = target: T2, SARS-CoV-1 Receptor Binding Domain …; assay: SPR; clone listed as COV2 only at the 21st table, row 17, column 3
[23] = target: T1, MERS Receptor Binding Domain (RBD) …; assay: as above
[24] = target: T2, SARS-CoV-1 Receptor Binding Domain …; assay: SPR; clone listed as COV2 only at the 21st table, row 21, column 3
[25] = target: T1, MERS Receptor Binding Domain (RBD) …; assay: as above
[26] = target: T2, SARS-CoV-1 Receptor Binding Domain …; assay: SPR; clone listed as COV2 only at the 21st table, row 23, column 3
[27] = target: T1, MERS Receptor Binding Domain (RBD) …; assay: as above

Row | Binder | Kd [1] [nM] | koff [1] [s⁻¹] | kon [1] [M⁻¹ s⁻¹] | further results
1 | B1 | ≤ 1.1 | ≤ 5.7e-05 | 52300 | binding result [2]: no binding (tested: up to 300 nM); binding result [3]: no binding (tested: up to 300 nM)
2 | B2 | 0.49 | 0.000123 | 249000 | binding result [4]: no binding (tested: up to 300 nM); binding result [5]: no binding (tested: up to 300 nM)
3 | B3 | 3.66 | 0.000533 | 146000 | binding result [6]: no binding (tested: up to 300 nM); binding result [7]: no binding (tested: up to 300 nM)
4 | B4 | 0.99 | 0.000261 | 264000 | binding result [8]: no binding (tested: up to 300 nM); binding result [9]: no binding (tested: up to 300 nM)
5 | B5 | 44 | 0.0089 | 200000 | binding result [10]: no binding (tested: up to 300 nM); binding result [11]: no binding (tested: up to 300 nM)
6 | B6 | 3.25 | 0.00039 | 120000 | binding result [12]: no binding (tested: up to 300 nM); binding result [13]: no binding (tested: up to 300 nM)
7 | B7 | 35.2 | 0.0154 | 438000 | binding result [14]: no binding (tested: up to 300 nM); binding result [15]: no binding (tested: up to 300 nM)
8 | B8 | 33.8 | 0.0156 | 462000 | binding result [16]: no binding (tested: up to 300 nM); binding result [17]: no binding (tested: up to 300 nM)
9 | B9 | 42.7 | 0.0057 | 130000 | binding result [18]: no binding (tested: up to 300 nM); binding result [19]: no binding (tested: up to 300 nM)
10 | B10 | 13.3 | 0.000496 | 37300 | binding result [20]: no binding (tested: up to 300 nM); binding result [21]: no binding (tested: up to 300 nM)
11 | B11 | 15.2 | 0.00107 | 70700 | binding result [22]: no binding (tested: up to 300 nM); binding result [23]: no binding (tested: up to 300 nM)
12 | B12 | 40.4 | 0.00177 | 43800 | binding result [24]: no binding (tested: up to 300 nM); binding result [25]: no binding (tested: up to 300 nM)
13 | B13 | 6.58 | 0.00041 | 63000 | binding result [26]: no binding (tested: up to 300 nM); binding result [27]: no binding (tested: up to 300 nM)
